The results in this text go back to paper PMC4402694, “A non-canonical mechanism for Crm1-export cargo complex assembly” (eLife, 2015).

Common to all, as to details: both partners purified
Assay [1] has as its target T1, His6-Ran (yeast (S. cerevisiae), UniProt P32835 1-219).
T1 construct: Gsp1 (yeast Ran), wild type; loaded with GTP or with GDP before the assay; the two loadings are two assays; also called His6-Gsp1 (Ran) WT; RanGTP; not shown: His6, N-terminal, kept
Nature of the assay: pull-down; GST fusion immobilised on GSH-Sepharose, incubated with 2 µM His6-Ran loaded with GTP, 1 hr at 4°C.

Assay [2] deals with T2, His6-Ran^QLGTP (yeast (S. cerevisiae), UniProt P32835 1-219, Gsp1Q71L).
T2 construct: Gsp1 (yeast Ran), GTP-stabilized mutant Q71L, equivalent to human RanQ69L; also called Gsp1Q71L; RanGTP; not shown: His6, N-terminal, kept
Nature of the assay: pull-down; GST fusion immobilised on GSH-Sepharose in PBSKMT, incubated with one purified protein (2 µM His6-Ran variant, or 0.5 µM Slx9 or Slx9-1) for 1 hr at 4°C, competing E. coli lysates present; Coomassie or Western.

Assay [3] deals with Crm1-His6 (yeast (S. cerevisiae), UniProt P30822 1-1084). Put plainly: pull-down; trimeric export complex formation: GST fusion immobilised on GSH-Sepharose, incubated with 2 µM His6-Ran^QLGTP and 50 nM Crm1-His6 together; competing E. coli lysates present; Coomassie or Western.
Assay [4] deals with T2, His6-Ran^QLGTP. Described as above.

B1: GST-Slx9 (natural protein, yeast (S. cerevisiae), UniProt P53251 1-210, looked up)
chain: MVAKKRNTLRSKVSARNSQNFGPDVANNGILDESYDIESDPRAFLHQPKETKKEKLLNRQNTFLSNLKGKSTLNDGIAANFDGISKSSIRRRKRKLREELKPRMQDLLTSLEQEKDLRGIIENSSKDMNNDDDIDMDSKIRFVDTKEMNLKKIEPGSVRIKKNQPNIRNQKGAKALAANETARFNQVLTNQDFQKNPFGALREVIKLQKQ
As to B1, the binding result in assay [1] and in assay [2] was “binds” each time.

B2: GST-Ssb1C (domain or fragment, yeast (S. cerevisiae), UniProt P11484 524-613, looked up)
chain: NQAEEFKAADEAFAKKHEARQRLESYVASIEQTVTDPVLSSKLKRGSKSKIEAALSDALAALQIEDPSADELRKAEVGLKRVVTKAMSSR
In the case of B2, the binding result in assay [3] and in assay [4] was “binds” in each case.
